Assay results published in patent publication US20030068675, “Position dependent recognition of GNN nucleotide triplets by zinc fingers” (published 2003).
Residue numbers refer to the chain shown, from its start.

What was measured:
Assay in all cases: EMSA
Conditions in all cases: tags: MBP fusion
[1] = target: T1, ZFP SBS#739 (synthetic)
T1 chain: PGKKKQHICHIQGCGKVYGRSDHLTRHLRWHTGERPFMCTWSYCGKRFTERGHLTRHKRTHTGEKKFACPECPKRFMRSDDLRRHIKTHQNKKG
In short: (§1)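 Purified ZFP was titrated against labeled double-stranded target (1 nM or lower, at least 10-fold below expected Kd) carrying the natural binding site with flanks. Binding buffer was 10 mM Tris pH 7.5, 100 mM KCl, 1 mM MgCl2, 0.1 mM ZnCl2, 5 mM DTT, 10% glycerol, 0.02% BSA, with equilibration for at least 45 min. Bound and free target were separated on a 10% polyacrylamide gel.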

[2] = target: T2, ZFP SBS#526 (synthetic)
T2 chain: T1 chain with D81T, R83K, R84K
In short: as §1

[3] = target: T3, ZFP SBS#440 (synthetic)
T3 chain: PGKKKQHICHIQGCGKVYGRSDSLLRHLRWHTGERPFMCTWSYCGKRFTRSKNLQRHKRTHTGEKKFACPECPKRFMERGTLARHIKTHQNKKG
In short: as §1

[4] = target: T4, ZFP SBS#505 (synthetic)
T4 chain: T3 chain with K52D, Q55A, E78D, R79C, G80R, T81D
In short: as §1

[5] = target: T5, ZFP SBS#503 (synthetic)
T5 chain: T3 chain with K52D, Q55A
In short: as §1

[6] = target: T6, ZFP SBS#504 (synthetic)
T6 chain: T3 chain with K52D, Q55A, E78D, G80S, T81D, A83T
In short: as §1

[7] = target: T7, ZFP SBS#1239 (synthetic)
T7 chain: T1 chain with H23A, E50D, R51P, H53N, T55V, D81N, R83K, R84D
In short: as §1

[8] = target: ZFP SBS#1298 (synthetic)
ZFP SBS#1298 (synthetic), sequence (chain, as listed by the source): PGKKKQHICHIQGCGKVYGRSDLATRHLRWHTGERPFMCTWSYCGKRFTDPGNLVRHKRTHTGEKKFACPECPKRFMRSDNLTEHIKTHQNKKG
In short: as §1

[9] = target: ZFP SBS#1300 (synthetic)
ZFP SBS#1300 (synthetic), sequence (chain, as listed by the source): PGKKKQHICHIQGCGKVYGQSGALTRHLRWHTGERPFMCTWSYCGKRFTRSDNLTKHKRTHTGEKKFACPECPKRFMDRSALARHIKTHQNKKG
In short: as §1

[10] = target: T8, ZFP SBS#1248 (synthetic)
T8 chain: T3 chain with R20Q, D22G, S23A, L25T, K52D, Q55T, R56T, E78D, G80S, T81A
In short: as §1

[11] = target: T9, ZFP SBS#1252 (synthetic)
T9 chain: T1 chain with R20Q, S21R, D22A, T25E, E50Q, R51S, G52S, H53D, D81T, R84E
In short: as §1

[12] = target: T10, ZFP SBS#1302 (synthetic)
T10 chain: T1 chain with R20Q, D22G, E50Q, R51S, G52S, H53D, D81T, R84E
In short: as §1

[13] = target: ZFP SBS#1289 (synthetic)
ZFP SBS#1289 (synthetic), sequence (chain, as listed by the source): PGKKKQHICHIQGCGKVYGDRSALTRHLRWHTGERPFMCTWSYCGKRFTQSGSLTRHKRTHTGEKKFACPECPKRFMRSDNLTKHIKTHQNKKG
In short: as §1

[14] = target: ZFP SBS#1267 (synthetic)
ZFP SBS#1267 (synthetic), sequence (chain, as listed by the source): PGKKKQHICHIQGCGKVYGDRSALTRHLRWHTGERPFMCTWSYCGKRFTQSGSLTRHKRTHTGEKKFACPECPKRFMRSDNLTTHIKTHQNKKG
In short: as §1

[15] = target: T11, ZFP SBS#1292 (synthetic)
T11 chain: T1 chain with R20Q, D22G, T25A, E50T, R51S, H53N, T55V, D81A, R83T, R84T
In short: as §1

[16] = target: ZFP SBS#1270 (synthetic)
ZFP SBS#1270 (synthetic), sequence (chain, as listed by the source): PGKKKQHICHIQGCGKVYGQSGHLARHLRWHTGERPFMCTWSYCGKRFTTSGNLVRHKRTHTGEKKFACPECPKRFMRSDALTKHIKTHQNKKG
In short: as §1

[17] = target: T12, ZFP SBS#1273 (synthetic)
T12 chain: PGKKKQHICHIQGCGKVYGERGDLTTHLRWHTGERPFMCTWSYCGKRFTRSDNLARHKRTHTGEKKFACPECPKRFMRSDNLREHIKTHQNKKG
In short: as §1

[18] = target: T13, ZFP SBS#1272 (synthetic)
T13 chain: T12 chain with E20D, G22S, D23S
In short: as §1

[19] = target: T14, ZFP SBS#1295 (synthetic)
T14 chain: T12 chain with E20D, G22S, D23S, R83T
In short: as §1

[20] = target: T15, ZFP SBS#1296 (synthetic)
T15 chain: T12 chain with R83T
In short: as §1

[21] = target: ZFP SBS#1297 (synthetic)
ZFP SBS#1297 (synthetic), sequence (chain, as listed by the source): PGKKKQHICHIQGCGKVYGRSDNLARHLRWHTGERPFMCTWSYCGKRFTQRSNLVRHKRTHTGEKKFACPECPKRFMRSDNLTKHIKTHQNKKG
In short: as §1

[22] = target: T16, ZFP SBS#1276 (synthetic)
T16 chain: T1 chain with H23N, T25A, E50Q, G52S, H53N, T55V, D81N, R83T, R84T
In short: as §1

[23] = target: ZFP SBS#1290 (synthetic)
ZFP SBS#1290 (synthetic), sequence (chain, as listed by the source): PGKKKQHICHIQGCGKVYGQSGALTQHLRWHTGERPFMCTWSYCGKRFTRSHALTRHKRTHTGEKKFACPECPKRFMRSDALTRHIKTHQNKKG
In short: as §1

[24] = target: ZFP SBS#1291 (synthetic)
ZFP SBS#1291 (synthetic), sequence (chain, as listed by the source): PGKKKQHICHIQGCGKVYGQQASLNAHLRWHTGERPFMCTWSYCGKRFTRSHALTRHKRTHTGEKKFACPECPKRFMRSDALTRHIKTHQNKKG
In short: as §1

[25] = target: T17, ZFP SBS#1293 (synthetic)
T17 chain: T12 chain with E20T, R21S, D23H, T25V, T26R, R50Q, D52G, N53A, R83T, E84Q
In short: as §1

[26] = target: ZFP SBS#1294 (synthetic)
ZFP SBS#1294 (synthetic), sequence (chain, as listed by the source): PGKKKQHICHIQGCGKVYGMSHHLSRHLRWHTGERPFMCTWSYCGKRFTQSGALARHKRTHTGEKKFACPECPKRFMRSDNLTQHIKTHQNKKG
In short: as §1

[27] = target: T18, ZFP SBS#1310 (synthetic, UniProt P08047)
T18 chain: T12 chain with E20T, R21T, G22S, D23A, T25A, T26S, R83T, E84T
In short: as §1

[28] = target: T19, ZFP SBS#1309 (synthetic)
T19 chain: T12 chain with E20Q, R21S, G22S, D23A, T25A, T26S, R83T, E84T
In short: as §1

[29] = target: T20, ZFP SBS#1303 (synthetic)
T20 chain: T12 chain with E20Q, G22S, D23A, T25A, T26S, R83T, E84T
In short: as §1

[30] = target: T21, ZFP SBS#1306 (synthetic)
T21 chain: T12 chain with E20R, R21S, G22D, D23A, R50D, S51C, D52R, N53D, N81A
In short: as §1

[31] = target: ZFP SBS#1311 (synthetic)
ZFP SBS#1311 (synthetic), sequence (chain, as listed by the source): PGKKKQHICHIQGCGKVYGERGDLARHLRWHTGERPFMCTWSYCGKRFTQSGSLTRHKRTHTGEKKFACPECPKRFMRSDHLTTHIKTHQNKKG
In short: as §1

[32] = target: T22, ZFP SBS#1308 (synthetic)
T22 chain: T12 chain with D23T, T25A, T26R, R50Q, D52G, N53S, A55T, N81H, R83T, E84T
In short: as §1

[33] = target: ZFP SBS#1312 (synthetic, UniProt P08047)
ZFP SBS#1312, sequence (P08047 other isoform, or with tags, fused parts or gaps): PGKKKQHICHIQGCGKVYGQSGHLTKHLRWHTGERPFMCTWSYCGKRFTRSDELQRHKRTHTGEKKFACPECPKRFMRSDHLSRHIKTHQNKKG
In short: as §1

[34] = target: ZFP SBS#1313 (synthetic, UniProt P08047)
ZFP SBS#1313, sequence (P08047 other isoform, or with tags, fused parts or gaps): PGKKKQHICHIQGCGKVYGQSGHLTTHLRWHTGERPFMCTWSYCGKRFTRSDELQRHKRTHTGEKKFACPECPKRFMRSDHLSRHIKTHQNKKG
In short: as §1

[35] = target: ZFP SBS#1314 (synthetic)
In short: as §1

[36] = target: ZFP SBS#1315 (synthetic)
ZFP SBS#1315 (synthetic), sequence (chain, as listed by the source): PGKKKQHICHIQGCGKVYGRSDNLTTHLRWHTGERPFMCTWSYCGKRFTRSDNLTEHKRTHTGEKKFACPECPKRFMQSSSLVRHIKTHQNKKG
In short: as §1

B1: GCGGGCGGGC (dsDNA)
DNA 1: GCGGGCGGGC
DNA 2: GCCCGCCCGC
Binder B1 has a Kd [1] of 16.5 nM and a Kd [2] of 8 nM.

B2: GCCGAGGTGC (dsDNA)
DNA 1: GCCGAGGTGC
DNA 2: GCACCTCGGC
For B2, the Kd [3] was 40 nM, the Kd [4] was 65 nM and the Kd [5] was 50 nM. It also gave a Kd [6] of 25 nM.

B3: CAGGACGTG (dsDNA)
DNA 1: CAGGACGTG
DNA 2: CACGTCCTG
B3 was tested, and the Kd [7] was 0.144 nM and the Kd [8] was 0.05 nM.

B4: GTCTAGGTA (dsDNA)
DNA 1: GTCTAGGTA
DNA 2: TACCTAGAC
For B4, the Kd [9] was 0.46 nM and the Kd [10] was 5.14 nM.

B5: CCGGCTGGA (dsDNA)
DNA 1: CCGGCTGGA
DNA 2: TCCAGCCGG
Binder B5 has a Kd [11] of 0.153 nM and a Kd [12] of 0.05 nM.

B6: TAGGCAGTC (dsDNA)
DNA 1: TAGGCAGTC
DNA 2: GACTGCCTA
With B6 the Kd [13] was 1.37 nM and the Kd [14] was 6 nM.

B7: TTGGATGGA (dsDNA)
DNA 1: TTGGATGGA
DNA 2: TCCATCCAA
Binder B7 has a Kd [15] of 4.12 nM and a Kd [16] of 0.4 nM.

B8: CAGGAGTCC (dsDNA)
DNA 1: CAGGAGTCC
DNA 2: GGACTCCTG
B8 gave a Kd [17] of 0.1 nM, a Kd [18] of 0.04 nM and a Kd [19] of 0.116 nM. The Kd [20] was 37 nM.

B9: TAGGAAGAG (dsDNA)
DNA 1: TAGGAAGAG
DNA 2: CTCTTCCTA
For B9, the Kd [21] was 0.05 nM and the Kd [22] was 0.685 nM.

B10: GTGGTGATA (dsDNA)
DNA 1: GTGGTGATA
DNA 2: TATCACCAC
Binder B10 has a Kd [23] of 24.1 nM and a Kd [24] of 20.6 nM.

B11: AAGGTAGGT (dsDNA)
DNA 1: AAGGTAGGT
DNA 2: ACCTACCTT
In the case of B11, the Kd [25] is reported as 0.457 nM and the Kd [26] is reported as 2.75 nM.

B12: TAGGAGTTT (dsDNA)
DNA 1: TAGGAGTTT
DNA 2: AAACTCCTA
B12 was tested, and the Kd [27] was 0.075 nM, the Kd [28] was 0.184 nM and the Kd [29] was 0.088 nM.

B13: CTGGCCTTG (dsDNA)
DNA 1: CTGGCCTTG
DNA 2: CAAGGCCAG
In the case of B13, the Kd [30] is reported as 2.29 nM.

B14: TGGGCAGCC (dsDNA)
DNA 1: TGGGCAGCC
DNA 2: GGCTGCCCA
B14 gave a Kd [31] of 0.91 nM and a Kd [32] of 0.305 nM.

B15: GGGGCGTGA (dsDNA)
DNA 1: GGGGCGTGA
DNA 2: TCACGCCCC
For B15, the Kd [33] was 0.23 nM and the Kd [34] was 0.09 nM.

B16: GTACAGTAG (dsDNA)
DNA 1: GTACAGTAG
DNA 2: CTACTGTAC
For B16, the Kd [35] was 3.09 nM and the Kd [36] was 9.27 nM.
